Target: FLAG-tagged V-ATPase a3 subunit (full-length) (UniProt Q9JHF5)
Test: co-IP; FLAG- and V5-tagged proteins co-expressed in HEK293T cells; lysed 48 h after transfection in IP buffer (1% Triton X-100, 10% glycerol, 50 mM Tris-HCl pH 7.4, 150 mM NaCl, 1 mM dithiothreitol, 1 mM EDTA); precipitated with anti-FLAG antibody; western blot with anti-V5 (or anti-A subunit) antibody

UniProt Q9JHF5, sequence (Q9JHF5 entry or part of it): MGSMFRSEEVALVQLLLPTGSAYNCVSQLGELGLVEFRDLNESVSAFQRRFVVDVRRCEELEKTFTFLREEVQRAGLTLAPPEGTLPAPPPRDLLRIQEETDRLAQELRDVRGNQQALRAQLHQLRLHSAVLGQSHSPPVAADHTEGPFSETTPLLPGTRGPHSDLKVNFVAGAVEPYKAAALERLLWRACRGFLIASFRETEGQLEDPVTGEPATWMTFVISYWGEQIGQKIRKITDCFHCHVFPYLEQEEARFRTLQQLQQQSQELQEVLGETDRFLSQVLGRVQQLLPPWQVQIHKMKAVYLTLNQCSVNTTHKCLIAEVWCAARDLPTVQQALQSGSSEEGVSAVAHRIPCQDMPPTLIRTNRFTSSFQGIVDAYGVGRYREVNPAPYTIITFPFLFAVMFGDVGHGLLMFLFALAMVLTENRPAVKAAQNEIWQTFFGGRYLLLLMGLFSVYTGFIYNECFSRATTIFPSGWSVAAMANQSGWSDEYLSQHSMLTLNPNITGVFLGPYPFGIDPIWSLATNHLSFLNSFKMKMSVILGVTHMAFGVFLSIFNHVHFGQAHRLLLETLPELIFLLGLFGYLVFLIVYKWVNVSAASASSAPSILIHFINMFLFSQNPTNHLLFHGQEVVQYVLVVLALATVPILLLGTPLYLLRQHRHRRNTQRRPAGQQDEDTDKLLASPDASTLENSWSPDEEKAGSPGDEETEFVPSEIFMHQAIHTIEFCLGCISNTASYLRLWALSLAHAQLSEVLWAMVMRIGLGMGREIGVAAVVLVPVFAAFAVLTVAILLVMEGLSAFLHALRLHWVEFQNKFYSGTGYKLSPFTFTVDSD

“V5-tagged GDP-fixed form of Rab7(T22N) (from UniProt P51150 1-207) (natural protein)” gave a fold increase of Rab7 co-precipitated with a3 when V5-Mon1A and V5-Ccz1 were exogenously expressed, against without them of 3 fold.

Reference: article PMC9120031
